Measurements published in IntAct's records for PubMed 11739402.

Tests used:
gors2_rat Gorasp2 = gors2_rat Gorasp2 (UniProt Q9R064)
gors1_rat Gorasp1 = gors1_rat Gorasp1 (UniProt O35254)
Sequence of gors1_rat Gorasp1 (O35254 whole entry): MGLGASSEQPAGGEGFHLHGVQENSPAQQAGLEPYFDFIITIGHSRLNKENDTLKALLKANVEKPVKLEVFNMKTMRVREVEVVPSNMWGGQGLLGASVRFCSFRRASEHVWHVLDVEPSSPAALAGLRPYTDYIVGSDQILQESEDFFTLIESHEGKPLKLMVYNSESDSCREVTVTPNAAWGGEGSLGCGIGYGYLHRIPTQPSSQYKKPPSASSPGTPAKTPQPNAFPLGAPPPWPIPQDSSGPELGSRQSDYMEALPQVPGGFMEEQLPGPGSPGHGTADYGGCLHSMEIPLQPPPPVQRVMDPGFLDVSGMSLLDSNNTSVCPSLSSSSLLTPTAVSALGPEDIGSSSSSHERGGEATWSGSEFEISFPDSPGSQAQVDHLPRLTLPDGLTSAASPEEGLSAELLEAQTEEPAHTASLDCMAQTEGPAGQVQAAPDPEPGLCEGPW

Sequence of Transmembrane emp24 domain-containing protein 2 (Rattus norvegicus (Rat)), Q63524 V200A;V201A (Q63524 whole entry V200A/V201A, the tested form may be a part): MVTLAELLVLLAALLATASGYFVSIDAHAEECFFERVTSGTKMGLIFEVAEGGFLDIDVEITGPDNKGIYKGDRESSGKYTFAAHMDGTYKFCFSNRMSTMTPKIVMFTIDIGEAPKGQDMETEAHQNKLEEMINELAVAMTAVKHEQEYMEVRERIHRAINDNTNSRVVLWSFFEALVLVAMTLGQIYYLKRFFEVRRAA

Substance: Transmembrane emp24 domain-containing protein 2 (Rattus norvegicus (Rat)), Q63524 V200A;V201A
- effect of a mutation on the interaction (gors2_rat Gorasp2): decreasing interaction
- effect of a mutation on the interaction (gors1_rat Gorasp1): decreasing interaction
